Test system: ERα target genes TFF-1, c-Myc, cyclin D1 and MMP-9
Assay: Gene expression in xenograft tumor tissues by real-time PCR
Format: in vivo, athymic nude mice
Source text: FIG. 6A) Whole lung tissues were fixed, embedded, and sectioned for H&E staining, and FIG. 6B) metastasis foci in the whole lung tissues were then counted. Arrow indicates the metastasis foci. Scale bar: 100 μm. FIG. 6C) After digesting tumor tissues with trypsin and 0.1% collagenase, tumor cells were stained for CD44 and CD24, and FIG. 6D) analyzed for CD44^+CD24^−/low stem cell population using flow cytometry. FIG. 6E) Total RNA in the tumor tissues was extracted using TRIZOL reagent, and the expression of TFF-1, FIG. 6F) c-Myc, FIG. 6G) cyclin D1, and FIG. 6H) MMP-9 were determined by real-time PCR.
Cell culture. Human breast cancer luciferase-overexpressing BT474 and MDA-MB-231 cells were maintained in DMEM medium (Hyclone, Thermo Scientific) supplemented with 10% fetal bovine serum (FBS, Sigma) and 1% penicillin/streptomycin (Corning) at 37° C. in a humidified atmosphere with 5% CO2.^53 • Generation of pRNA nanoparticles. The two strands of pRNA were synthesized with the DNA templates, which were amplified with overlapping primers (Sigma) by PCR methods, using a T7 promoter-controlled in vitro RNA transcription system as previously described^33 (Table 1). All the CTP and UTP used for synthesis of the pRNA nanoparticles were 2′-fluoro modified, except the control unmodified pRNA nanoparticles used in the stability assays. Following an overnight transcription at 37° C., RNA strands were purified using RNA clean and concentrator kits (ZYMO research) and examined by 8 M urea denatured 8% PAGE gel. pRNA nanoparticles were assembled by mixing the equal molar amounts of p1 and p2 strands and gradually annealing from 90° C. to 20° C. in 1×RNA annealing buffer containing 50 mM Tris-HCl (pH 7.5), 50 mM NaCl and 1 mM EDTA on a PCR machine. The generated pRNA nanoparticles were examined by 8% native PAGE gels as previously described.^33 To generate AF647-conjugated pRNA nanoparticles, a 5′-termial AF647-conjugated RNA strand was synthesized (TriLink) for annealing. • Characterization of pRNA nanoparticles. The hydrodynamic diameter and Tm value of pRNA nanoparticles were determined using dynamic light scattering and TGGE assay, respectively, as previously described.^54 The AFM imaging of the pRNA nanoparticles was performed at the University of Nebraska Medical Center imaging facility as previously reported.^55 Briefly, the pRNA nanoparticles (5 μL) were deposited on APS modified mica ^56 for a total of 2 min of incubation time. Excess samples were washed with DI water and dried under a flow of Argon gas. AFM images in air were acquired using MultiMode AFM NanoScope IV system (Bruker Instruments) operating in tapping mode with 1.5 Hz scanning rate. TESPA probes from Bruker were used for tapping mode imaging. […] For stability analyses, the pRNA nanoparticles were treated with RNase A, 8 M urea, or 10% FBS supplemented DMEM medium at 37° C., respectively. The integrity of the pRNA nanoparticles was examined through native PAGE gel electrophoresis. • pRNA nanoparticle cellular uptake assay. BT474 and MDA-MB-231 cells were seeded into 4-well Lab-Tek chamber slides (Nalge Nunc international, Thermo scientific) and incubated with 10 μg/mL AF647-conjugated pRNAs at 4° C. for 30 min. After washing with PBS for three times, cells were incubated at 37° C. for another hour. Cells were then fixed with 4% formaldehyde, permeated with 0.25% Trinton X-100, and stained with FITC-conjugated β-actin antibody (Sigma) and DAPI (Sigma). pRNA nanoparticle uptake was examined using a laser scanning confocal microscope (Zeiss). For flow cytometry analyses, BT474 cells were incubated with AF647-labeled pRNA nanoparticles at 37° C. for 3 h. After washing three times with PBS, the cellular uptake of pRNAs was determined using a BD LSRFortessa™ flow cytometer. • Real-time PCR. […]

B1: pRNA-HER2apt-siMED1: 3-WJ pRNA nanoparticle bearing a HER2-targeting RNA aptamer and two different MED1 siRNAs; strands p1 SEQ ID NO: 3, p2 SEQ ID NO: 4 (nucleic acid)
chain 1: GGACAGUGAAAGUGAGUCAAAGGAUCAAUCAUGGCCAAAGAUGUUACUUUGAGAGCCUU
chain 2: GGCUCUCAAAGUAACAUCUAAGGCCAUGUGUAUGUGGGGGGAGGACGAUGCGGUCUGCUGUGCUUGAUAUGCCCCAGACGACUCGCCCCCCACAUACUUUGUUGAUCCAAUGACUCACUUUCACUGUCCUU
modifications: 2'-F modification; third strand may lack entry; pRNA-HER2apt-siMED1, p1; pRNA-HER2apt-siMED1, p2
Combined with tamoxifen
  MMP-9 expression in tumor tissues: further inhibited
  TFF-1 expression in tumor tissues: further inhibited
  c-Myc expression in tumor tissues: further inhibited
  cyclin D1 expression in tumor tissues: further inhibited
pRNA treatment
  MMP-9 expression in tumor tissues: significantly down-regulated
  TFF-1 expression in tumor tissues: significantly down-regulated
  c-Myc expression in tumor tissues: significantly down-regulated
  cyclin D1 expression in tumor tissues: significantly down-regulated
